Assays:
[1] = system: T1, N=C(N)NCCC[C@H](NC(=O)[C@H](CCCNC(=N)N)NC(=O)[C@H](CCCNC(=N)N)NC(=O)[C@H](CCCNC(=N)N)NC(=O)[C@H](Cc1ccccc1)NC(=O)[C@H](CO)Nc1ccc([N+](=O)[O-])c2nonc12)C(=O)N[C@@H](CCCCN)C(N)=O; experiment: Fluorescent PKC assay (spectrofluorimetry); assay type: biochemical, human; details: other: PKCγ; Fluorescence; pH 7.4; 30.0 °C
T1 construct: purchased Panvera
Experimental: Fluorescent PKC assay-Fluorescence assays were performed in triplicate at 30° C. and initiated by addition of ATP to a 100 μL cuvette containing a 50 μL solution of PKC and peptide substrate 2. Final conditions: 62.5 mM HEPES pH 7.4, 3 mM MgCl2, 0.3 mM CaCl2, 0.1 mM EGTA, 1 mM DTT, 0.5 μg/mL phosphatidylserine, 0.1 μg/mL diacylglycerol, 1 mM ATP, and 13 nM PKC. After the addition of ATP, the solution was gently mixed and the time-dependent change in fluorescent intensity (excitation: 520 nm, emission: […]) continuously monitored with a Photon Technology QM-1 spectrofluorimeter.

[2] = system: T1, N=C(N)NCCC[C@H](NC(=O)[C@H](CCCNC(=N)N)NC(=O)[C@H](CCCNC(=N)N)NC(=O)[C@H](CCCNC(=N)N)NC(=O)[C@H](Cc1ccccc1)NC(=O)[C@H](CO)Nc1ccc([N+](=O)[O-])c2nonc12)C(=O)N[C@@H](CCCCN)C(N)=O; experiment: Radioactive PKC assay ([γ-32P]ATP); assay type: biochemical, human; details: other: PKCγ, 30.0 °C
Experimental: Radioactive PKC Assay—Radioactive assays were performed in duplicate at 30° C. The final assay volume totaled 40 μl and contained 62.5 mM HEPES (pH 7.4), 0.75 mM CaCl2, 12.5 mM MgCl2, 1 mM dithiothreitol, 0.5 mM EGTA, 7.5 μg/mL phosphatidylserine, 1.6 μg/mL diacylglycerol, and 10 ng of PKC. […] Phosphorylation reactions were initiated by the addition of 10 μL of PKC from a stock solution (20 mM Tris-HCl at pH 7.5, 1 mM dithiothreitol, 1 mM EDTA, and 0.75 mg/mL bovine serum albumin) into 30 μL of assay buffer containing peptide substrate. Reactions were terminated after 5 min by spotting 25 μL aliquots onto phosphocellulose paper disks (2.1 cm in diameter). After 10 s, the disks were immersed in 10% glacial acetic acid and soaked with occasional stirring for at least 1 h. The acetic acid was decanted and the disks were collectively washed with four volumes of 0.5% H3PO4, 1 volume of water, followed by a final acetone rinse. The disks were air dried and then counted in a Beckman LS scintillation counter.

PKCγ (Homo sapiens)
Km [1]: 30 ± 5 µM
kcat [1]: 3.17 ± 0.667 s⁻¹
kcat/Km [1]: 105000 ± 28300 M⁻¹ s⁻¹
Km [2]: 5.0 ± 1.0 µM
kcat [2]: 3.5 ± 0.333 s⁻¹
kcat/Km [2]: 700000 ± 150000 M⁻¹ s⁻¹

From US7759459B2, “Fluorescent assays for protein kinases” (Albert Einstein College of Medicine of Yeshiva University, priority 2003, dated 2010)
